Measurements published in patent US20240376208A1 (AFFIMED, published 2024).

Legend:
[1] = biological target: T1, biotinylated monomeric CD16A antigen (human, UniProt P08637 17-208, limits assumed, biotinylated (site not stated)); test: ELISA, biotinylated monomeric CD16A titrated on coated construct
T1 construct: Soluble antigen; also called soluble CD16A antigen
Description: (§1) For the capturing approach, 96-well ELISA plates (Immuno Maxisorp, Nunc) were coated overnight at 4° C. with His-tagged human EGFR or BCMA extracellular domain at concentrations of 3.0 or 0.4 μg/mL, respectively. After blocking with 3% (w/v) skimmed milk powder dissolved in phosphate buffered saline (PBS), antigen coated plates were used for capturing of different multivalent bispecific engagers at concentrations of 3-5 μg/mL in PBS containing 0.3% (w/v) skimmed milk powder. After washing three times with 300 μL per well of PBS containing 0.1% (v/v) Tween 20, plates were incubated with serial dilutions of biotinylated dimeric or monomeric CD16A antigen in PBS containing 0.3% (w/v) skimmed milk powder for 1.5 h at room temperature. After washing, plates were incubated with the detection conjugate Streptavidin HRP, 1:10,000 diluted in PBS containing 0.3% (w/v) skimmed milk powder for 1 h followed by washing and incubation with tetramethylbenzidine substrate (Seramun) for 1-2 min. Reaction was stopped by addition of 0.5 M H₂SO₄ (100 μL/well). Absorbance was measured at 450 nm using a multiwell plate reader, plotted and EC₅₀ values were determined by fitting a nonlinear regression model to sigmoidal dose-response curves (four parameters logistic fit) using GraphPad Prism software.
(§2) Concentration dependent binding of antibody constructs to coated recombinant CD16A antigen, or of soluble monomeric or dimeric CD16 antigen variants to coated or target antigen captured antibody constructs was analyzed in ELISA. Half maximal binding concentrations (EC₅₀) were determined by fitting a nonlinear regression model to sigmoidal dose-response curves (four parameters logistic fit) using GraphPad Prism software.

[2] = biological target: recombinant CD16A 158V fused to monomeric human Fc (human, UniProt P08637 17-208); test: ELISA, construct titrated on coated CD16A 158V fused to monomeric human Fc
recombinant CD16A 158V fused to monomeric human Fc, sequence (P08637 17-208 F176V): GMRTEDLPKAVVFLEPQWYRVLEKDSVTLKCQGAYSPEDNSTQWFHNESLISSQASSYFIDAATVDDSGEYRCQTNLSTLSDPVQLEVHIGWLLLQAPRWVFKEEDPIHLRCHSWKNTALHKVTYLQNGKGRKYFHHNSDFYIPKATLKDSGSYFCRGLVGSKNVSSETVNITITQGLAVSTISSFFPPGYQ

[3] = biological target: T1, biotinylated monomeric CD16A antigen; test: ELISA, biotinylated monomeric CD16A titrated on construct captured by coated His-tagged human BCMA extracellular domain
Description: as §1, §2

[4] = biological target: T2, BCMA on MM.1S target cells (UniProt Q02223 1-184, limits assumed); test: cell-based or functional assay
T2 sequence (looked up): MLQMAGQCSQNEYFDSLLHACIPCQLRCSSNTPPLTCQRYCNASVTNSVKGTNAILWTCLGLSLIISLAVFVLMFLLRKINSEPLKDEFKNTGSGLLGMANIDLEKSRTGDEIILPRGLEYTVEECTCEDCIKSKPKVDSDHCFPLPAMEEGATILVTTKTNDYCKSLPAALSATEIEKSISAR

[5] = biological target: T3, recombinant CD16A 158F fused to monomeric human Fc (human, UniProt P08637 17-208); test: ELISA, construct titrated on coated CD16A 158F fused to monomeric human Fc
T3 construct: also called recombinant CD16 antigen variant; not shown: monomeric human Fc
T3 sequence (P08637 17-208): as the sequence (P08637 17-208 F176V) above, with V160F counted along it
Description: To assess binding of EGFR/CD16 or BCMA/CD16 antibodies to coated antigen in ELISA, 96-well ELISA plates (Immuno Maxisorp, Nunc) were coated overnight at 4° C. with recombinant CD16 antigen variants fused to monomeric human Fc at a concentration of 1.5 μg/mL in 100 mM carbonate-bicarbonate buffer. After blocking with 3% (w/v) skimmed milk powder dissolved in phosphate buffered saline (PBS) serial dilutions of bispecific antibody constructs were incubated on the antigen coated plates for 1.5 h at room temperature. […] After washing, plates were incubated with tetramethylbenzidine substrate (Seramun) for 1-2 min. Reaction was stopped by addition of 0.5 M H₂SO₄ (100 μL/well). Absorbance was measured at 450 nm using a multiwell plate reader, plotted and EC₅₀ values were determined by fitting a nonlinear regression model to sigmoidal dose-response curves (four parameters logistic fit) using GraphPad Prism software.
as §2

[6] = biological target: T4, biotinylated dimeric CD16A antigen (human, UniProt P08637 17-208, limits assumed, biotinylated (site not stated)); test: ELISA, biotinylated dimeric CD16A titrated on construct captured by coated His-tagged human BCMA extracellular domain
T4 construct: Soluble antigen; also called soluble CD16A antigen
T4 sequence (P08637 17-208 limits assumed): as the sequence (P08637 17-208 F176V) above, with V160F counted along it
Description: as §1, §2

[7] = biological target: T4, biotinylated dimeric CD16A antigen; test: ELISA, biotinylated dimeric CD16A titrated on coated construct
Description: as §1, §2

[8] = biological target: CD38 on primary human NK cells (human, UniProt P28907 1-300); test: cell-based or functional assay

T1 sequence (P08637 17-208 limits assumed): as the sequence (P08637 17-208 F176V) above, with V160F counted along it

| Binder | EC50 [1] [nM] | EC50 [2] [nM] | EC50 [3] [nM] | EC50 [pM], 4 h calcein-release cytotoxicity on BCMA+ MM.1S target cells, NK cells E:T 5:1 [4] [pM] | Emax [%], 4 h calcein-release cytotoxicity on BCMA+ MM.1S target cells, NK cells E:T 5:1 [4] [%] | EC50 [5] [nM] | EC50 [6] [nM] | EC50 [7] [nM] | EC50 [pM], 4 h calcein-release NK cell fratricide assay, E:T 1:1 [8] [pM] | Emax [%], 4 h calcein-release NK cell fratricide assay, E:T 1:1 [8] [%] |
| --- | --- | --- | --- | --- | --- | --- | --- | --- | --- | --- |
| Bi-scDb-Fc_01 (bispecific antibody, human IgG1, Anti-BCMA scFv - silenced Fc - anti-CD16A scDb) EVQLLESGGGLVQPGGSLRLSCAASGFTFSNYDMAWVRQAPGKGLEWVSSISTRGDITSYRDSVKGRFTISRDNSKNTLYLQMNSLRAEDTAVYYCARQDYYTDYMGFAYWGQGTLVTVSSGGGGSGGGGSGGGGSAIQMTQSPSSLSASVGDRVTITCRASEDIYNGLAWYQQKPGKAPKLLIYGASSLQDGVPSRFSGSGSGTEFTLTISSLQPEDEATYYCAGPHKYPLTFGGGTKVEIKEPKSCDKTHTCPPCPAPEFEGGPSVFLFPPKPKDTLMISRTPEVTCVVVAVSHEDPEVKFNWYVDGVEVHNAKTKPREEQYNSTYRVVSVLTVLHQDWLNGKEYKCKVSNKALPAPIEKTISKAKGQPREPQVYTLPPSREEMTKNQVSLTCLVKGFYPSDIAVEWESNGQPENNYKTTPPVLDSDGSFFLYSKLTVDKSRWQQGNVFSCSVMHEALHNHYTQKSLSLSPGGGGGSGGGGSSYVLTQPSSVSVAPGQTATISCGGHNIGSKNVHWYQQRPGQSPVLVIYQDNKRPSGIPERFSGSNSGNTATLTISGTQAMDEADYYCQVWDNYSVLFGGGTKLTVLGGSGGSQVQLVQSGAEVKKPGESLKVSCKASGYTFTSYYMHWVRQAPGQGLEWMGAIEPMYGSTSYAQKFQGRVTMTRDTSTSTVYMELSSLRSEDTAVYYCARGSAYYYDFADYWGQGTLVTVSSGGSGGSGGSGGSGGSGGSSYVLTQPSSVSVAPGQTATISCGGHNIGSKNVHWYQQRPGQSPVLVIYQDNKRPSGIPERFSGSNSGNTATLTISGTQAMDEADYYCQVWDNYSVLFGGGTKLTVLGGSGGSQVQLVQSGAEVKKPGESLKVSCKASGYTFTSYYMHWVRQAPGQGLEWMGAIEPMYGSTSYAQKFQGRVTMTRDTSTSTVYMELSSLRSEDTAVYYCARGSAYYYDFADYWGQGTLVTVSS | 3.4 | 0.17 | 1.72 | 1.1 | 51.2 | 0.24 | 0.64 | 1.14 |  |  |
| IgAb_51 (antibody, V domains shown) VH: EVQLLESGGGLVQPGGSLRLSCAVSGFTFNSFAMSWVRQAPGKGLEWVSAISGSGGGTYYADSVKGRFTISRDNSKNTLYLQMNSLRAEDTAVYFCAKDKILWFGEPVFDYWGQGTLVTVSS VL: not shown |  |  |  |  |  |  |  |  | 66.5 | 68.6 |
| aBi-scDb-Fc_02 (bispecific antibody) chain 1: DKTHTCPPCPAPEFEGGPSVFLFPPKPKDTLMISRTPEVTCVVVAVSHEDPEVKFNWYVDGVEVHNAKTKPREEQYNSTYRVVSVLTVLHQDWLNGKEYKCKVSNKALPAPIEKTISKAKGQPREPQVYTLPPSREEMTKNQVSLTCLVKGFYPSDIAVEWESNGQPENNYKTTPPVLDSDGSFFLTSKLTVDKSRWQQGNVFSCSVMHEALHNHYTQKSLSLSPGGGGGSGGGGSSYVLTQPSSVSVAPGQTATISCGGHNIGSKNVHWYQQRPGQSPVLVIYQDNKRPSGIPERFSGSNSGNTATLTISGTQAMDEADYYCQVWDNYSVLFGGGTKLTVLGGSGGSQVQLVQSGAEVKKPGESLKVSCKASGYTFTSYYMHWVRQAPGQGLEWMGAIEPMYGSTSYAQKFQGRVTMTRDTSTSTVYMELSSLRSEDTAVYYCARGSAYYYDFADYWGQGTLVTVSSGGSGGSGGSGGSGGSGGSSYVLTQPSSVSVAPGQTATISCGGHNIGSKNVHWYQQRPGQSPVLVIYQDNKRPSGIPERFSGSNSGNTATLTISGTQAMDEADYYCQVWDNYSVLFGGGTKLTVLGGSGGSQVQLVQSGAEVKKPGESLKVSCKASGYTFTSYYMHWVRQAPGQGLEWMGAIEPMYGSTSYAQKFQGRVTMTRDTSTSTVYMELSSLRSEDTAVYYCARGSAYYYDFADYWGQGTLVTVSSAAAGSHHHHHH chain 2: EVQLLESGGGLVQPGGSLRLSCAASGFTFSNYDMAWVRQAPGKGLEWVSSISTRGDITSYRDSVKGRFTISRDNSKNTLYLQMNSLRAEDTAVYYCARQDYYTDYMGFAYWGQGTLVTVSSGGGGSGGGGSGGGGSAIQMTQSPSSLSASVGDRVTITCRASEDIYNGLAWYQQKPGKAPKLLIYGASSLQDGVPSRFSGSGSGTEFTLTISSLQPEDEATYYCAGPHKYPLTFGGGTKVEIKDKTHTCPPCPAPEFEGGPSVFLFPPKPKDTLMISRTPEVTCVVVAVSHEDPEVKFNWYVDGVEVHNAKTKPREEQYNSTYRVVSVLTVLHQDWLNGKEYKCKVSNKALPAPIEKTISKAKGQPREPQVYTLPPSREEMTKNQVSLYCLVKGFYPSDIAVEWESNGQPENNYKTTPPVLDSDGSFFLYSKLTVDKSRWQQGNVFSCSVMHEALHNHYTQKSLSLSPGGGGGSGGGGSSYVLTQPSSVSVAPGQTATISCGGHNIGSKNVHWYQQRPGQSPVLVIYQDNKRPSGIPERFSGSNSGNTATLTISGTQAMDEADYYCQVWDNYSVLFGGGTKLTVLGGSGGSQVQLVQSGAEVKKPGESLKVSCKASGYTFTSYYMHWVRQAPGQGLEWMGAIEPMYGSTSYAQKFQGRVTMTRDTSTSTVYMELSSLRSEDTAVYYCARGSAYYYDFADYWGQGTLVTVSSGGSGGSGGSGGSGGSGGSSYVLTQPSSVSVAPGQTATISCGGHNIGSKNVHWYQQRPGQSPVLVIYQDNKRPSGIPERFSGSNSGNTATLTISGTQAMDEADYYCQVWDNYSVLFGGGTKLTVLGGSGGSQVQLVQSGAEVKKPGESLKVSCKASGYTFTSYYMHWVRQAPGQGLEWMGAIEPMYGSTSYAQKFQGRVTMTRDTSTSTVYMELSSLRSEDTAVYYCARGSAYYYDFADYWGQGTLVTVSSAAAGSHHHHHH | 3.84 | 0.34 | 2.36 | 2.3 | 62.8 | 0.45 | 1.25 | 1 |  |  |
